Laboratory results from US20230168258A1 (UNIVERSIDAD DE MURCIA, published 2023).

Columns and labels:
Test in all cases: dot-blot
pig oxytocin = molecular target: T1, pig oxytocin (pig, UniProt P01177 20-28)
T1 construct: only the oxytocin nonapeptide is meant; The form spotted in the dot-blot is not described; also called oxytocin of pig
T1 peptide (looked up): CYIQNCPLG

human oxytocin = molecular target: T2, human oxytocin (human, UniProt P01178 20-28)
T2 construct: only the oxytocin nonapeptide is meant; The form spotted in the dot-blot is not described; also called oxytocin of human
T2 peptide (looked up): CYIQNCPLG

horse oxytocin = molecular target: T3, horse oxytocin (horse, UniProt P01176 1-9)
T3 construct: The form spotted in the dot-blot is not described; also called oxytocin of horse
T3 peptide (looked up): CYIQNCPLG

- binding result (pig oxytocin): binds
- binding result (human oxytocin): binds
- binding result (horse oxytocin): binds
B1: monoclonal antibody P26C (antibody, V domains shown)
VH: QIQLVQSGPELKKPGETVKISCKASGYIFTNYGMNWVKQAPGKNLKWMGWINTNTGEPTYAEEFKGRFAFSLETSASIAYLKINNLKNEDTATYFCSRGGLLPLSYWGQGTLVTVSA
VL: DVVMTQTPLSLPVSLGDQASISCRSSQSLVHSNGNTYLHWFLQKPGQSPKLLIYKVSNRFSGVPDRFSGSGSGTDFTLKISRVEAEDLGVYFCSQSTHFPWTFGGGTKLEIK
notes: Mouse (BALB/c) hybridoma antibody; the isotype is stated as IgGk; It was tested as hybridoma supernatant in the ELISA; also called clone P26C; monoclonal antibody of the invention
